Data: PMC3020727 (The Journal of Biological Chemistry, 2010)
No end group written: not given here. *: point of attachment. Biotin = O=C1N[C@H]2[C@H](CS[C@H]2CCCCC(=O)*)N1

Columns and labels:
[1] = target: T1, RbAp48 (full length, residues 1-425), purified recombinant (UniProt Q09028 1-425); test: ITC
[2] = target: T1, RbAp48 (full length, residues 1-425), …; test: SPR

T1 sequence (Q09028 whole entry, the tested form may be a part): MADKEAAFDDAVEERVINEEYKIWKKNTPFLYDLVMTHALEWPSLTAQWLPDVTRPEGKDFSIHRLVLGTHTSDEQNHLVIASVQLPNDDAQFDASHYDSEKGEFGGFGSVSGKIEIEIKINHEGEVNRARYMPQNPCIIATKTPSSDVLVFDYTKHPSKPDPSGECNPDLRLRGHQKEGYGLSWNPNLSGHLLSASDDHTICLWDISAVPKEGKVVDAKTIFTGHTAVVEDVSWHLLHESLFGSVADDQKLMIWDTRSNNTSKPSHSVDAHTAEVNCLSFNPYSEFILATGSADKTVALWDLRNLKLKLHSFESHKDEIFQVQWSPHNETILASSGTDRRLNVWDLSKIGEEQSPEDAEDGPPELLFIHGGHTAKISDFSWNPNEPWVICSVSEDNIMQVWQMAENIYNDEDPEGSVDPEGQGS

Row | Binder | Ka [1] [M⁻¹] | Ka [2] [M⁻¹]
1 | MSRRKQSNPRQI [FOG-1-(1-12) peptide] | 1.54e+06 | 
2 | Biotin-MSRRKQSNPRQIKRS [biotinylated FOG-1-(1-15) peptide] |  | 1.36e+06
